Substitutions are numbered along the chain they refer to. Numbers in names are those of the source.
Substrate: Nc1ncnc2c1ncn2[C@@H]1O[C@H](COP(=O)(O)OP(=O)(O)OP(=O)(O)O)[C@@H](O)[C@H]1O
Test: purified protein
Type: biochemical, Homo sapiens
Conditions: Mg2+ ATP binding site

B1: hCINAP (Homo sapiens) (protein)
chain: MLLPNILLTGTPGVGKTTLGKELASKSGLKYINVGDLAREEQLYDGYDEEYDCPILDEDRVVDELDNQMREGGVIVDYHGCDFFPERWFHIVFVLRTDTNVLYERLETRGYNEKKLTDNIQCEIFQVLYEEATASYKEEIVHQLPSNKPEELENNVDQILKWIEQWIKDHNS
With B1 the Km was 45 ± 5 µM and the kcat/Km was 140 M⁻¹ s⁻¹.

B2: hCINAP-H79G (Homo sapiens; H79G) (protein)
chain: B1 chain with H79G
With B2 the Km was 93 ± 8 µM.

From article PMC3839082
